Patent US20210032664, “ENGINEERED MEGANUCLEASES WITH RECOGNITION SEQUENCES FOUND IN THE HUMAN BETA-2 MICROGLOBULIN GENE” (Precision Biosciences, Inc., published 2021)
Changes are numbered by the printed parent chain. Numbers in names are those of the source.

Legend:
Assay in all cases: cell_activity; human T cells, 1 ug mRNA, day 3
Conditions in all cases: tags: N-terminal SV40 NLS
[1] = target: T1, B2M 13-14x.325 (Artificial Sequence)
T1 chain: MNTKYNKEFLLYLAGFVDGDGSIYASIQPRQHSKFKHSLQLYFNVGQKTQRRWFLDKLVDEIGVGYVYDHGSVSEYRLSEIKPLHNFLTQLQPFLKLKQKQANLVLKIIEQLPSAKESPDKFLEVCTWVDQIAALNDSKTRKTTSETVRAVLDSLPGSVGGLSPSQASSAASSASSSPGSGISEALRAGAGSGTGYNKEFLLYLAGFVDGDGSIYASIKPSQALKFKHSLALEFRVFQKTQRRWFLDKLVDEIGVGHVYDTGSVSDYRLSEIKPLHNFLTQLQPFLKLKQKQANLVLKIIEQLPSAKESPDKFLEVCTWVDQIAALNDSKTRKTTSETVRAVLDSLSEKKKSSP
Experimental: (§1) Donor human T cells were stimulated with anti-CD3 and anti-CD28 antibodies for 3 days, then electroporated with mRNA encoding a given B2M 13-14 meganuclease (1 μg) using the Amaxa 4D-Nucleofector (Lonza) according to the manufacturer's instructions. To look for the loss of B2M surface expression, cells were stained with an antibody recognizing β-2 microglobulin (BD Biosciences) as well as an antibody recognizing CD3 (BioLegend), a marker of T cells.

[2] = target: T2, B2M 13-14x.365 (Artificial Sequence)
T2 chain: T1 chain with S221R, A223R, S229Q, A231F, F237T, T261H, D266E
Experimental: as §1

[3] = target: T3, B2M 13-14x.287 (Artificial Sequence)
T3 chain: T1 chain with S221C, A223C, S229Q, A231F, F237T, T261S
Experimental: as §1

[4] = target: T4, B2M 13-14x.556 (Artificial Sequence)
T4 chain: T1 chain with H32R, S217G, S221R, A223S, S229G, A231T, F237A, T261F, D266E
Experimental: as §1

[5] = target: T5, B2M 13-14x.479 (Artificial Sequence)
T5 chain: T1 chain with H32R, S217R, S221A, A223N, S229A, A231H, F237T, T261V
Experimental: as §1

[6] = target: T6, B2M 13-14x.456 (Artificial Sequence)
T6 chain: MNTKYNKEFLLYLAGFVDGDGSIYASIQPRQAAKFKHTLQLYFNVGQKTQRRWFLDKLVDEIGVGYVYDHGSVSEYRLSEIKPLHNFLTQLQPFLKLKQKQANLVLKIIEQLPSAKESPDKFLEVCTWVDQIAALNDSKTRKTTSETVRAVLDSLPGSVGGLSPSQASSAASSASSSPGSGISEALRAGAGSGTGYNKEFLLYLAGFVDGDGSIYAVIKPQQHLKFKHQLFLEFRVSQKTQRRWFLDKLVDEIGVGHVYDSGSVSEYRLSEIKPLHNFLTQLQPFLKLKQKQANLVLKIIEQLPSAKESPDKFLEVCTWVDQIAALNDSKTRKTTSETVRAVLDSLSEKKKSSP
Experimental: as §1

[7] = target: T7, B2M 13-14x.457 (Artificial Sequence)
T7 chain: T6 chain with V217K, H223S, Q229Y, F231N, S237T, S261C, E266D
Experimental: as §1

B1: B2M 13-14 recognition sequence (dsDNA)
DNA 1: CTATCTCTTGTACTACACTGAA
DNA 2: TTCAGTGTAGTACAAGAGATAG
Work on B1 yielded an activity [1] of 14.4 % B2M-negative, an activity [2] of 27.4 % B2M-negative and an activity [3] of 75.7 % B2M-negative. The activity [4] was 11.8 % B2M-negative, the activity [5] was 67.2 % B2M-negative and the activity [6] was 15.7 % B2M-negative. It also gave an activity [7] of 19.7 % B2M-negative.
